The data set addresses T1, OgeuIscB wild-type (human gut metagenome).
T1 chain: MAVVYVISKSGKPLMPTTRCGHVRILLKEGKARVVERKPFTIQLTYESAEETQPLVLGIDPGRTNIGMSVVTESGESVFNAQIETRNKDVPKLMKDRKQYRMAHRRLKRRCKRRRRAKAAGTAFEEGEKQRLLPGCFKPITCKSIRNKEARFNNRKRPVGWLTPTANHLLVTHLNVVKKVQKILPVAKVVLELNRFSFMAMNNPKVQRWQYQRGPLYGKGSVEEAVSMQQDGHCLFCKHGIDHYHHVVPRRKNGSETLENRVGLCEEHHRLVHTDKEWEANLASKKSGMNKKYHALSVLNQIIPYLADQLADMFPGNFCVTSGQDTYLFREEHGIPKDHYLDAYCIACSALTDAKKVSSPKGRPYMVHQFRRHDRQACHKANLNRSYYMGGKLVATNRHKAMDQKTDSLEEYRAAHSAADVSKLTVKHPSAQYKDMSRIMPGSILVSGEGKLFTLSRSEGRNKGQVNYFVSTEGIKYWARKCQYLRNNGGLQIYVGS
Briefly: structure; cryo-EM of IscB-ωRNA/target DNA at 2.78 A; TAM 5'-CTAGAA-3' (ideal NWRRNA). The settings on record: label: 5' 6-FAM on non-target strand; partially mismatched bubble in protospacer. The protocol: IscB was incubated for 15 minutes at 37° C. with the target DNA in cleavage buffer. DNA was supplied at a 3 fold molar excess to IscB (0.5 mg/mL final concentration). 3.5 μL of were applied to a Quantifoil holey carbon grid (1.2/1.3, 200 mesh) which had been glow-discharged with 20 mA at 0.39 mBar for 30 seconds (PELCO easiGlow). Grids were blotted with Vitrobot blotting paper (Electron Microscopy Sciences) for 6.5 s at 4° C., 100% humidity, and plunge-frozen in liquid ethane using a Mark IV FEI/Thermo Fisher Vitrobot. Data were collected on a Krios G3i Cryo Transmission Electron Microscope (Thermo Scientific) with a Ceta 16M CMOS camera 300 kV, Gatan K3 direct electron detector. The total exposure time of each movie stack led to a total accumulated dose of 50 electrons per Å2 which fractionated into 50 frames. Dose-fractionated super-resolution movie stacks collected from the Gatan K3 direct electron detector were binned to a pixel size of 1.1 Å. The defocus value was set between −1.0 μm to −2.5 μm.

Experimental findings from US20250283116, “USE OF ISCB IN GENOME EDITING” (Cornell University, published 2025) are described below.

B1: OgeuIscB ωRNA with 16-nt guide ; cryo-EM target DNA (ssRNA ; dsDNA)
RNA: AAAAGAGUGAACGAGAGGCUCUUCCAACUUUAUGGUUGCGACCGUAGGUUGAAAGAGCACAGGCUGAGACAUUCGUAAGGCCGAAAGACCGGACGCACCCUGGGAUUUCCCCAGUCCCCGGAACUGCAUAGCGGAUGCCAGUUGAUGGAGCAAUCUAUCAGAUAAGCCAGGGGGAACAAUCACCUCUCUGUAUCAGAGAGAGUUUUACAAAAGGAGGAACGG
DNA 1: CGCCCCACGAGGGTACGGCAAAAGAGTTTTTTTTACTAGAAGTCGAGGTCAGCCCGTGGC
DNA 2: GCCACGGGCTGACCTCGACTTCTAGTCTCGTTCACTCTTTTGCCGTACCCTCGTGGGGCG
modifications: phosphorothioate at several positions of both strands (after G25-T31 region as marked by *)
Turning to B1, the binding result is “binds”.
